In publication PMC5605434 (Nature chemical biology, 2017):
Blank lines part the entries; values can stand above or below the molecule they belong to.

Key:
LbNOX = target: T1, LbNOX (Levilactobacillus brevis, UniProt Q03Q85); assay: X-ray crystal structure; format: binding; conditions: NADH-soaked crystal; His-tag not cleaved
T1 sequence (Q03Q85 1-450): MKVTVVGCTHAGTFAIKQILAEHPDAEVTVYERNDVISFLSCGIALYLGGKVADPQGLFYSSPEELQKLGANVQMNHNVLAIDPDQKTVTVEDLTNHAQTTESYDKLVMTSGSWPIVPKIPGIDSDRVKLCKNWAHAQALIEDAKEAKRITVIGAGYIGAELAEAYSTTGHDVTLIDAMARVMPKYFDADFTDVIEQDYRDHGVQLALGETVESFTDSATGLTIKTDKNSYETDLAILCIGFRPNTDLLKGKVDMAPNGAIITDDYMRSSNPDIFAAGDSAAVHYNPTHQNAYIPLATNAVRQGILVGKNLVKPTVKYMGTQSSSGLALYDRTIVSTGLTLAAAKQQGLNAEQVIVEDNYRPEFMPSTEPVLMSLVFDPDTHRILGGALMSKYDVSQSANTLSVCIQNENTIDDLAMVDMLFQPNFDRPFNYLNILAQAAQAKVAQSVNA

[1] = target: TPNOX (triphosphopyridine nucleotide oxidase), quintuple mutant of Lactobacillus brevis H2O-forming NADH oxidase (LbNOX) (Lactobacillus brevis)
purified protein = substrate: NC(=O)C1=CN([C@@H]2O[C@H](COP(=O)(O)OP(=O)(O)OC[C@H]3O[C@@H](n4cnc5c(N)ncnc54)[C@H](OP(=O)(O)O)[C@@H]3O)[C@@H](O)[C@H]2O)C=CC1; assay: purified protein; conditions: 50 mM NaPi, pH 7.5, 150 mM NaCl, 37 °C, O2 as co-substrate

Molecule: Cc1cc2nc3c(=O)[nH]c(=O)nc-3n(C[C@H](O)[C@H](O)[C@H](O)COP(=O)(O)OP(=O)(O)OC[C@H]3O[C@@H](n4cnc5c(N)ncnc54)[C@H](O)[C@@H]3O)c2cc1C [FAD]
X-ray crystal structure (LbNOX): can the nicotinamide ring of NADH come into proximity of FAD

stoichiometry N [1]: 4
Molecule: TPNOX (triphosphopyridine nucleotide oxidase), quintuple mutant of Lactobacillus brevis H2O-forming NADH oxidase (LbNOX) (enzyme)

B1: LbNOX (Levilactobacillus brevis ATCC 367) (protein)
chain: T1 sequence (Q03Q85 1-450)
Km (purified protein): 621 ± 124 µM
kcat (purified protein): 0.052 ± 0.001 s⁻¹
kcat/Km (purified protein): 83 ± 16 M⁻¹ s⁻¹
